This experiment addresses T1, recombinant secreted soluble PSCA with a C-terminal 6xHis and MYC tag (human) (UniProt O43653).
T1 sequence (looked up): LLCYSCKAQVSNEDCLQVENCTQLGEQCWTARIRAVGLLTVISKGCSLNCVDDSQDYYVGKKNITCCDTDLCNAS
The experiment is described as follows: SPR (BIAcore), recombinant His/MYC-tagged PSCA immobilized at low density (30 RU), mAb in solution. For orientation: In SPR one partner is held on a chip, and binding of the other changes the refractive index at the surface.

B1: anti-PSCA monoclonal antibody 1G8 (ATCC No. HB-12612) (antibody, from another filing, mouse IgG1, V domains shown)
VH: EVQLQQSGAELVRSGASVKLSCTASGFNIKDYYIHWVNQRPDQGLEWIGWIDPENGDTEFVPKFQGKATMTADIFSNTAYLHLSSLTSEDTAVYYCKTGGFWGQGTLVTVSA
VL: QVVLTQSPAIMSASPGEKVTMACSASSSVRFIHWYQQKSGTSPKRWIYDTSKLASGVPTRFSGSGSGTSYSLTISTMEAEDAATYYCQQWSSSPFTFGSGTKLIIK
For orientation: Kd means the constant that tells how readily two partners part at equilibrium. What is called kon is the second-order rate constant of association. Consider B1, for which the Kd is 1 nM and the kon was 168000 M⁻¹ s⁻¹.

The record behind these values is patent US20040018571A1.
